The target in test [1] is PA/H2-D^b (influenza Polymerase Acidic peptide … presented by H2-D^b) (mouse; human).
In test [2] the target is PA4C/H2-D^b (PA peptide with cysteine at position 4 presented by H2-D^b) (mouse; human).
Test [3] concerns the target PA4C7A/H2-D^b (mouse; human).
The target of test [4] is PA4C7K/H2-D^b (mouse; human).
In test [5] the target is PA4C7L/H2-D^b (mouse; human).
The target in test [6] is PA/H2-D^b (influenza Polymerase Acidic peptide … presented by H2-D^b) (mouse; human). This is another data set of the same source.
The target of test [7] is PA4C/H2-D^b (PA peptide with cysteine at position 4 presented by H2-D^b) (mouse; human). The source holds these as a separate data set.
The target in test [8] is PA4C7A/H2-D^b (mouse; human). This is another data set of the same source.
Test [9] concerns the target PA4C7K/H2-D^b (mouse; human). This is another data set of the same source.
For test [10], the target named is PA4C7L/H2-D^b (mouse; human). The source holds these as a separate data set.

For the substance 6218 TCR expressed on cells, the tetramer MFI / TCRβ MFI, normalized to 6218 TCR-PA/H2-D^b in [1] stood at 1; in test [2], 1.03; in test [3] it was 0.16; in test [4] it was 0.33; in test [5] it was 0.03. In addition, the IL-2 in supernatant (ELISA), 5KC T cells with CD8αβ and the TCR + DC2.4 cells + graded peptide: EC50 [panel PA] in test [6] stood at 0.05 µM. In addition, in test [7], the IL-2 in supernatant (ELISA), 5KC T cells with CD8αβ and the TCR + DC2.4 cells + graded peptide: EC50 [panel PA4C] was determined as 0.049 µM. The IL-2 in supernatant (ELISA), 5KC T cells with CD8αβ and the TCR + DC2.4 cells + graded peptide: EC50 [left graph] in test [8], in [9] and in test [10] was above 50 µM in each case.
